Results reported in US20150104385A1, “RADIO-PHARMACEUTICAL COMPLEXES” (Algeta ASA, priority 2012, published 2015).

Biological target: T1, CD22 (Homo sapiens, UniProt P20273)
T1 construct: host or cells: Raji cells
Experiment: Binding of AGC1115 and AGC1100 to CD22-positive Raji cells by flow cytometry
Details: flow cytometry MFI, 1.5 h at 4° C., four-parameter fit, read-out: EC50 of fitted titration curve (binding potency)
Experimental: Binding of AGC1115 and AGC1100 (anti-human CD22, Immunomedics; hLL2, #1003164, 10 mg/ml) to CD22-positive Raji cells (ATCC, #CCL-86) was analysed by flow cytometry. The EC50 value determined from the fitted curve was used for comparison of the antibody versus the antibody conjugate binding potency. This analysis was used to confirm that antibody conjugate binding potency to CD22 was unaffected by the conjugation procedure.
Raji cells were grown in RPMI 1640 (PAA; #E15-840) in the presence of 10% fetal bovine serum (FBS) and 1% penicillin/streptomycin. For the flow cytometry analysis 50 ml cell culture was harvested by centrifugation at 4° C. for 5 min at 340×g. […] Subsequently, 20 μl of the preparation of resuspended cells was diluted 1:500 in Coulter Isoton II Diluent, and counted using Beckman Coulter Z2 instrumentation (Beckman Coulter; CA, USA). […]
AGC1115 and AGC1100 was diluted to 50 μg/ml and titrated in twelve points in 3-fold dilution steps. […] All samples were analysed in a V-shaped bottom 96-well plate. Fluorescent signal was recorded on a Beckman Coulter Cell Lab Quanta SC MPL flow cytometer (Beckman Coulter; CA, USA). […]
Data was fitted using the “log(agonist) vs. response—Variable slope (four parameters)” binding model in Graph Pad Prism (PrismSoftware; CA, USA) and the EC50 values was calculated from the fit (FIG. 2).

AGC1100: anti-CD22 monoclonal antibody hLL2, also called epratuzumab
EC50: 9 nM
